Measurements from patent US20170240596A1.
No end group written: not given here.

Molecular target: Prostate-specific membrane antigen (PSMA) (human), Q04609
Assay: apparent Kd, flow cytometry, FAM-labeled peptide on PSMA-positive LNCaP cells, 4 C
Details: remark: other sources report otherwise

Chain of Prostate-specific membrane antigen (PSMA) (human), Q04609 (Q04609 whole entry): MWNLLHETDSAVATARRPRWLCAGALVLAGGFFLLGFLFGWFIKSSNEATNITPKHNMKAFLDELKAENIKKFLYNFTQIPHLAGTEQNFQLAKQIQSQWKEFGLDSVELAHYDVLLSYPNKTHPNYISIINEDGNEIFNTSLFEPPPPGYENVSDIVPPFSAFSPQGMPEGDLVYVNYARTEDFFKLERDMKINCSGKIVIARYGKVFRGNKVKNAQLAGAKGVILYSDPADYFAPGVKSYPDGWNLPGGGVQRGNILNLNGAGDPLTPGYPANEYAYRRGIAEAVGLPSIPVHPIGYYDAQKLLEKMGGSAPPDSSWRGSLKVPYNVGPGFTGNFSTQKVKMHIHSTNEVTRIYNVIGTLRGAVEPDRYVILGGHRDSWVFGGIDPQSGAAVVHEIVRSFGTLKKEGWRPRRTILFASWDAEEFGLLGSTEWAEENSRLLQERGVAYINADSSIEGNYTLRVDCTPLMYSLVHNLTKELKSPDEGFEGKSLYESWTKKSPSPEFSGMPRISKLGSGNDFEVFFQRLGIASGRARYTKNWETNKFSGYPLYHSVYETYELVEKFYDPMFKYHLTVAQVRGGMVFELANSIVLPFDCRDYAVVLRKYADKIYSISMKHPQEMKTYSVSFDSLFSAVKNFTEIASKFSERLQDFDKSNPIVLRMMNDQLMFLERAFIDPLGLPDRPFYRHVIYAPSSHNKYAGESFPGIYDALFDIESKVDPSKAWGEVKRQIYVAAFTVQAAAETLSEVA

B1: FAM-labeled WQP peptide … (peptide)
peptide: WQPDTAHHWATL
modifications: also: FAM label, position not given here
- Kd: 23.6 µM
